Data published in article PMC3906981.

Molecular target: HA-tagged PAK2 (p21 protein (Cdc42/Rac)-activated kinase) (UniProt Q13177)
Test: co-immunoprecipitation (anti-AU1) with in vitro kinase assay, densitometric quantification
Set-up: reference not given here
Conditions: cells transfected with Nef, CDC42V12 and PAK2-HA; parent: 114

Chain of UniProt Q13177 (Q13177 whole entry): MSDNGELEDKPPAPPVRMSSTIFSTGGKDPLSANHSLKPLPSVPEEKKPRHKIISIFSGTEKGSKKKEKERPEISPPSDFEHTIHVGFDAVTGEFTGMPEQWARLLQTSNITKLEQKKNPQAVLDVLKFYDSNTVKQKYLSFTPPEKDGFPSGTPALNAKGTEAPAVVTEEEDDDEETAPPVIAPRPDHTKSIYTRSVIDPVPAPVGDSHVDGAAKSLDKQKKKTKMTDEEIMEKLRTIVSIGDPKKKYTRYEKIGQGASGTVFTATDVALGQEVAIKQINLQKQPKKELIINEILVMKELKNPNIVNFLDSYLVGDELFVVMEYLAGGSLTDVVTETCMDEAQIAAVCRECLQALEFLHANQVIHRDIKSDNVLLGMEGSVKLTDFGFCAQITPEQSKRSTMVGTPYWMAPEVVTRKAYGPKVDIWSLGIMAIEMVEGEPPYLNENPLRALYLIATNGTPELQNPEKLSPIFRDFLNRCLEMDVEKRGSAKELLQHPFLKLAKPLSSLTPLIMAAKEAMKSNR

**Q.** “AU1-tagged SIVblu Nef, wild-type R129A; R130A” was tested. Which response did it give?
**A.** The response was 0.

Same assay, conditions: cells transfected with Nef, CDC42V12 and PAK2-HA; parent: 160

**Q.** “AU1-tagged SIVmac239 Nef, wild-type Y221R” was tested. Which response did it give?
**A.** Its response is 26.

**Q.** How did the response turn out when “AU1-tagged SIVmac239 Nef, wild-type P107A” was run?
**A.** The response was 59.

**Q.** “AU1-tagged SIVmac239 Nef, wild-type P104A” was tested. Which response did it give?
**A.** The response was 123.

**Q.** For “AU1-tagged SIVmac239 Nef, wild-type H121R”, which response is on record?
**A.** Its response is 23.

**Q.** For “AU1-tagged SIVmac239 Nef, wild-type P104A; P107A”, which response is on record?
**A.** The response was 34.

**Q.** For “AU1-tagged SIVmac239 Nef, wild-type H121R; Y221R”, which response is on record?
**A.** Its response is 0.
